This note sets out measurements from patent publication US20100183625A1 (published 2010).

Where a chain is given by its changes, count along the chain named.

The labels stand for the following.
B1: M10-F10 (antibody, V domains shown)
VH: EVQLLESGGGLVQPGGSLRLSCAASGFTFSFYNMNWVRQAPGKSLEWVSSISPSGGETNYADSVKGRFTISRDNSKNTLYLQMNSLRAEDTAVYYCARGGGAYRNNWWGGFDIWGLGTMVTVSS
VL: DIQMTQSPSSLSASVGDRVTITCRASQSISVYLNWYQHKPGKAPKLLIYGASNLQFGVPSRFSGSGYGTDFTLTISSLQPEDFATYHCQQTFSLFTFGGGTKVEIK
B2: M12-B05 (antibody, V domains shown)
VH: EVQLLESGGGLVQPGGSLRLSCAASGFTFSWYTMVWVRQAPGKGLEWVSYIYPSGGATFYADSVKGRFTISRDNSKNTLYLQMNSLRAEDTAVYYCAMGSYDYIWGFYSDHWGQGTLVTVSS
VL: QSALTQPPTVSVSPGQTARITCSGNKLGDKYVAWYQQKPGQSPMLVIYQDTKRPSRVSERFSGSNSANTATLSISGTQALDEADYYCQAWDSSIVIFGGGTRLTVL
B3: M29-D09 (antibody, V domains shown)
VH: B2 VH
VL: B2 VL with R56A, V57I, S58P
B4: M6-D09 (antibody, V domains shown)
VH: EVQLLESGGGLVQPGGSLRLSCAASGFTFSFYYMVWVRQAPGKGLEWVSVIYPSGGITVYADSVKGRFTISRDNSKNTLYLQMNSLRAEDTAVYYCARDKWAVMPPYYYYAMDVWGQGTTVTVSS
VL: DIQMTQSPSSLSASVSDRVTITCRASQSIRNYLNWYQQKPSKAPNLLIYAASTLQSGVPARFSGSGSGTDFTLTISSLQPEDFATYYCQQLSGYPHTFGQGTKLEIK
B5: M7-B04 (antibody, V domains shown)
VL: QSALTQPASVSGSPGQSITISCTGTNSDVGNYNLVSWYQQHPGEAPKLLIYEVNKRPSGVSNRFSGSKSGNTASLTISGLQAEDEADYLCCSYAGNRNFYVFGAGTKVTVL
VH: EVQLLESGGGLVQPGGSLRLSCAASGFTFSWYSMVWVRQAPGKGLEWVSSISPSGGLTNYADSVKGRFTISRDNSKNTLYLQMNSLRAEDTAVYYCARHTAARPFYYYYMDVWSKSTTVTVSSASTKGPSVFPLAPSSKS
B6: M7-E07 (antibody, V domains shown)
VH: EVQLLESGGGLVQPGGSLRLSCAASGFTFSWYLMIWVRQAPGKGLEWVSYIYPSGGFTYYADSVKGRFTISRDNSKNTLYLQMNSLRAEDMAVYYCARTEGPLSWGYGMDVWGQGTTVTVSS
VL: not shown
B7: M27-E05 (antibody, V domains shown)
VH: B6 VH
VL: not shown
B8: M142-H08 (antibody, V domains shown)
VH: EVQLLESGGGLVQPGGSLRLSCAASGFTFSAYSMIWVRQAPGKGLEWVSYIRPSGGRTTYADSVKGRFTISRDNSKNTLYLQMNSLRAEDTAVYYCARGGLLLWFRELKSNYFDYWGQGTLVTVSS
VL: DIQMTQSPSSLSAFVGDRVTITCRASQPIDNYLNWYHQKPGKAPKLLIYAASRLQSGVPSRLSGSGFGTDFTLTISSLQPEDFGNYYCQQSYTVPYTFGGGTKVEIR
B9: M38-F02 (antibody, V domains shown)
VH: EVQLLESGGGLVQPGGSLRLSCAASGFTFSYYMMVWVRQAPGKGLEWVSYIYSSGGHTVYADSVKGRFTISRDNSKNTLYLQMNSLRAEDTAVYYCARDLFLYDFWSKGAFDIWGQGTMVTVSS
VL: QSVLTQPPSVSVSPSQTASITCSGEKLGDKYVSWYQQKPGQSPSLVICEDSRRPSGIPERFSGSNSGNTATLTISGAQPMDEADYYCQAWDSSTAIFGPGTKVTVL
B10: M160-G12 (antibody, V domains shown)
VH: EVQLLESGGGLVQPGGSLRLSCAASGFTFSHYLMTWVRQAPGKGLEWVSYISPSGGHTIYADSVKGRFTISRDNSKNTLYLQMNSLRAEDTAVYYCARVARGIAARSRTSYFDYWGQGTLVTVSS
VL: DIQMTQSPSFLSASVGDRVTITCRASQGISSYLAWYQQKPGKAPKLLIYAASTLQSGVPSRFSGSGSGTEFTLTISSLQPEDFATYYCQQLNSYPLTFGGGTKVEIK
B11: M146-E12 (antibody, V domains shown)
VH: EVQLLESGGGLVQPGGSLRLSCAASGFTFSRYIMHWVRQAPGKGLEWVSSISPSGGLTSYADSVKGRFTISRDNSKNTLYLQMNSLRAEDTAVYYCAREFENAYHYYYYGMDVWGQGTTVTVSS
VL: DIQMTQSPSSLSASVGDRVTITCRASGDIGNALGWYQQKPGKAPRLLISDASTLQSGVPLRFSGSGSGTEFTLTISSLQPEDFATYYCLQGYNYPRTFGQGTKLEIR
B12: M162-A04 (antibody, V domains shown)
VH: EVQLLESGGGLVQPGGSLRLSCAASGFTFSHYIMMWVRQAPGKGLEWVSGIYSSGGITVYADSVKGRFTISRDNSKNTLYLQMNSLRAEDTAVYYCAYRRTGIPRRDAFDIWGQGTMVTVSS
VL: DIQMTQSPSTLSASVGDRVTITCRASQSISSWLAWYQQKPGKAPNLLIYKASTLESGVPSRFSGSGSGTEFTLTISSLQPDDFATYYCQQYNTYWTFGQGTKVEIK
B13: M110-C12 (antibody, V domains shown)
VH: EVQLLESGGGLVQPGGSLRLSCAASGFTFSYYEMDWVRQAPGKGLEWVSGISSSGGHTAYADSVKGRFTISRDNSKNTLYLQMNSLRAEDTATYYCARERRSSSRARYYYGMDVWGQGTTVTVSS
VL: DIQMTQSPLSLSVTPGEPASISCRSSLSLLHSNGYNYLDWYVQRPGQSPQLLMYLSSTRASGVPDRFSGSGSGTDFTLEISRVEAEDVGVYYCMQPLETPPTFGGGTKVEIK
B14: M152-A12 (antibody, V domains shown)
VH: EVQLLESGGGLVQPGGSLRLSCAASGFTFSPYFMGWVRQAPGKGLEWVSGIGPSGGSTTYADSVKGRFTISRDNSKNTLYLQMNSLRAEDTAVYYCAREGPPYSSGWYRGLRQYHFDYWGQGTLVTVSS
VL: DIQMTQSPSSLSASVGDRVTITCRASQSISSYLSWYQQRPGKAPNLLIYAASSLQSGVPSRFSGSGSGTDFTLTISSLQPEDFATYYCQQSISIPRTFGQGTKVEVK
B15: M73-D06 (antibody, V domains shown)
VH: EVQLLESGGGLVQPGGSLRLSCAASGFTFSRYEMYWVRQAPGKGLEWVSSISSSGGPTAYADSVKGRFTISRDNSKNTLYLQMNSLRAEDTAMYYCAKGTPKWELLLRSIYIENAFDIWSQGTMVTVSS
VL: QSELTQPPSASETPSQRVTISCSGSSSNIGSNTVSWFQQLPGSAPRLLIYNDHRRPSGVPDRFSGSKSGTSASLVISGLQSQDEADYYCSAWDDSLNGVVFGGGTKLTVL
B16: M8-A09 (antibody, V domains shown)
VH: EVQLLESGGGLVQPGGSLRLSCAASGFTFSTYFMLWVRQAPGKGLEWVSSIYPSGGNTVYADSVKGRFTISRDNSKNTLYLQMNSLRAEDTAVYYCARAASPVRNYYYYGMDVWGQGTTVTVSS
VL: QCELTQPPSESVSPGQTANITCSGDKLGNKYAYWYQQKPGQSPVLVIYQDNNRPSGIPERFSGSNSGNTATLTISGTQAIDEANYYCQAWDSRTVVFGGGTKLTVL
B17: M35-G04 (antibody, V domains shown)
VH: EVQLLESGGGLVQPGGSLRLSCAASGFTFSYYHMSWVRQAPGKGLEWVSVISPSGGSTKYADSVKGRFTISRDNSKNTLYLQMNSLRAEDTAVYYCARGGSSDYAWGSYRRPYYFDYWGQGTLVTVSS
VL: DIQMTQSPATLSLSPGERATLSCRASQSVSSYLAWYQQKPGQAPRLLIYDASNRATGIPARFSGSGSGTDFTLTISSLEPEDFAVYYCQQRSNWPRGFTFGPGTKVDIK
B18: M145-D01 (antibody, V domains shown)
VH: B17 VH
VL: B17 VL
B19: M161-C11 (antibody, V domains shown)
VH: EVQLLESGGGLVQPGGSLRLSCAASGFTFSDYAMKWVRQAPGKGLEWVSSISSSGGVTQYADSVKGRFTISRDNSKNTLYLQMNSLRAEDTAVYYCAREEDYSSSWYSRRFDYYYGMDVWGQGTTVTVSS
VL: QSALTQPPSVSVSPGQTASITCSGDKLGDKYVSWYQQRPGQSPVLVIYQDTKRPSGIPERFSGSNSGNTATLTISGTQAVDEADYYCQAWDSSTYVFGGGTKVTVL
B20: M41-A11 (antibody, V domains shown)
VH: EVQLLESGGGLVQPGGSLRLSCAASGFTFSHYRMSWVRQAPGKGLEWVSSIYPSGGRTVYADSVKGRFTISRDNSKNTLYLQMNSLRAEDTAVYYCAKDKFEWRLLFRGIGNDAFDIWGQGTMVTVSS
VL: QSVLTQPPSVSVSPGQTASITCSGDKLGDKYTSWYQQRPGQSPVLVIYQDIKRPSGIPERFSGSNSGNTATLTISGTQAMDEADYYCQAWDSPNARVFGSGTKVTVL
B21: M145-D11 (antibody, V domains shown)
VH: B20 VH
VL: B20 VL

The first assay deals with T1, human plasma kallikrein (human, UniProt P03952 20-390; P03952 391-638).
T1 construct: also called pKal; human pKal
T1 sequence (P03952 20-390, chain 1 of 2): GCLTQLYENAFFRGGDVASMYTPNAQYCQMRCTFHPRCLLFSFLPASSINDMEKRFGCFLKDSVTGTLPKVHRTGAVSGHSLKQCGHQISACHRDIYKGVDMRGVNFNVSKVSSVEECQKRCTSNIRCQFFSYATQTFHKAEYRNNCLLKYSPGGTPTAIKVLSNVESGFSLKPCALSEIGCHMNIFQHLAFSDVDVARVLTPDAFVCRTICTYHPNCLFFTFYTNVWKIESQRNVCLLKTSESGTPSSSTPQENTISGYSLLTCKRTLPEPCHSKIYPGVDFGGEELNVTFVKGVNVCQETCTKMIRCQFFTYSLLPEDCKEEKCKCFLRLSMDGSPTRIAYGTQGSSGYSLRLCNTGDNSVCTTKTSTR
T1 sequence (P03952 391-638, chain 2 of 2): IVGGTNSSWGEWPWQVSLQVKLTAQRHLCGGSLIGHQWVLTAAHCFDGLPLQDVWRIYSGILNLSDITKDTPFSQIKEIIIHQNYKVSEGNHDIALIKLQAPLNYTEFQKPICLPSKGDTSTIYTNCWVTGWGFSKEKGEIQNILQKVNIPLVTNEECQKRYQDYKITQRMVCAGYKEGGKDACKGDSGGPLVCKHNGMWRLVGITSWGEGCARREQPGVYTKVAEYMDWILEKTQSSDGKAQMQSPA
The assay is described as follows: apparent Ki (Ki,app), inhibition of human pKal activity.
Regarding B1, the Ki was below 100 nM.

For B2, the Ki worked out at 4.9 nM.

For the molecule B3, the Ki came to 0.7 nM.

Turning to B4, the Ki worked out at 5.9 nM.

B5: the Ki stood at 54 nM.

For another assay, the target named is T1, human plasma kallikrein. The assay can be described thus: ELISA; signal on biotinylated plasma kallikrein divided by signal on streptavidin background. An excerpt:
Abbreviations used: “T/B” is the ELISA signal obtained using of the “target” (biotinylated plasma kallikrein) divided by the ELISA signal of the “background” (streptavidin); both of which were coated on microtiter plates. “nd” is not determined. The symbol “q” refers to the amber suppressible stop codon (TAG), which is translated as glutamine (Q) in strains of E. coli such as the TG1 cells that were used to express the Fab fragments.
For orientation: In an ELISA, binding on a coated surface is turned into a signal by an enzyme label.
Turning to B6, the “ELISA (T/B)” value worked out at 45.7 T/B ratio.

On to B7, for which the “ELISA (T/B)” value was 41.3 T/B ratio.

Take B8: the “ELISA (T/B)” value worked out at 29.9 T/B ratio.

Take B9: the “ELISA (T/B)” value was found to be 33.5 T/B ratio.

For the molecule B10, the “ELISA (T/B)” value is 38.3 T/B ratio.

Regarding B11, the “ELISA (T/B)” value was found to be 40.6 T/B ratio.

Turning to B1, the “ELISA (T/B)” value worked out at 39.2 T/B ratio.

B2: the “ELISA (T/B)” value came out at 38.4 T/B ratio.

As to B3, the “ELISA (T/B)” value worked out at 47.5 T/B ratio.

Regarding B12, the “ELISA (T/B)” value is 11.4 T/B ratio.

Regarding B13, the “ELISA (T/B)” value is 2.4 T/B ratio.

With B14, the “ELISA (T/B)” value came out at 19 T/B ratio.

B15: the “ELISA (T/B)” value was determined as 4 T/B ratio.

Consider B4, for which the “ELISA (T/B)” value came to 39.9 T/B ratio.

On to B16, for which the “ELISA (T/B)” value stood at 5.4 T/B ratio.

For the molecule B5, the “ELISA (T/B)” value is 4.1 T/B ratio.

In the case of B17, the “ELISA (T/B)” value amounted to 11.1 T/B ratio.

With B18, the “ELISA (T/B)” value was 6.2 T/B ratio.

With B19, the “ELISA (T/B)” value is 41.8 T/B ratio.

With B20, the “ELISA (T/B)” value was found to be 28 T/B ratio.

Take B21: the “ELISA (T/B)” value came out at 40 T/B ratio.
